Results taken from patent US20230296605A1.

Assays:
[1] = biological target: PRRSV viral lysate (Porcine Reproductive and Respiratory Syndrome Virus); experiment: […], antibody immobilized; […]
[2] = biological target: PRRSV viral lysate (Porcine Reproductive and Respiratory Syndrome Virus); experiment: ELISA, coated lysate, 1 ug antibody
[3] = biological target: PRRSV viral lysate (Porcine Reproductive and Respiratory Syndrome Virus); experiment: ELISA Test 2, coated lysate, antibody 1:4000; PBS control 0.118/0.121
[4] = biological target: lysate of porcine coronavirus; experiment: ELISA Test 2, coated lysate, antibody 1:4000; PBS control 0.140/0.145
[5] = biological target: lysate of porcine circovirus type 2; experiment: ELISA Test 2, coated lysate, antibody 1:4000; PBS control 0.162/0.153
[6] = biological target: PRRSV viral lysate (Porcine Reproductive and Respiratory Syndrome Virus); experiment: ELISA Test 1, coated lysate, antibody 1:4000, Group 1; PBS control 0.073/0.072
[7] = biological target: lysate of porcine pseudorabies virus; experiment: ELISA Test 1, coated lysate, antibody 1:4000, Group 1; PBS control 0.080/0.089
[8] = biological target: lysate of porcine pseudorabies virus; experiment: ELISA Test 1, coated lysate, antibody 1:4000, Group 2; PBS control 0.054/0.052
[9] = biological target: PRRSV viral lysate (Porcine Reproductive and Respiratory Syndrome Virus); experiment: ELISA Test 1, coated lysate, antibody 1:4000, Group 2; PBS control 0.058/0.060

B1: anti-PRRSV antibody 477 (antibody, V domains shown)
VH: QVHVKQSGAELAKPGASVKMSCKASGYTFTNYWMHWVKQRPGQGLEWIGYINPSTGYTEYNQKFKDKATLTADKSSSTASMQLSSLTSEDSAVYYCGRSTAYGKYGEAWFAYWGQGTLVTVSA
VL: DIVMTQSPASLAVSLGQRATISCRTSESVDSFGNSFMHWYQQKPGQPPKLLIYLASNLESGVPARFSGSGSRTDFTLTIDPVEADDAATYYCQQNNEDPYTFGGGTKLEIKR
B1 gave an electric signal, fold over the negative control [1] of 3 times, a lowest concentration of PRRSV recognized [2] of less than 0.78 ng and an OD450 [3] of 0.66 OD450. For the same binder, the OD450 [4] was 0.375 OD450, the OD450 [5] was 0.303 OD450 and the OD450 [6] was 0.151 OD450. It also gave an OD450 [7] of 0.095 OD450, an OD450 [8] of 0.08 OD450 and an OD450 [9] of 0.129 OD450.
